In general, Kd refers to a measure of binding affinity in units of concentration. High values mean weaker binding, low ones tighter binding. Usually koff stands for the first-order rate constant of dissociation. One may read the kon as the second-order rate constant of association. A lower kon goes with slow association.

The target of experiment [1] is feline FcRn (IgG receptor FcRn large subunit p51 with feline beta-2-microglobulin) (feline). The experiment is described as follows: SPR Biacore 8K+, IgG on C1 chip, pH 5.9, 1:1 kinetic fit.
Experiment [2] has as its target feline FcRn (FCN-F82W3, Acrobiosystems) (feline). The experiment is described as follows: SPR Carterra, IgG coupled, pH 6.0.
The target in experiment [3] is feline FcRn (IgG receptor FcRn large subunit p51 with feline beta-2-microglobulin) (feline). In words: SPR Biacore 8K+, IgG on C1 chip, pH 5.9, kinetic fit (printed 1:4). In general terms: SPR reads the build-up and loss of mass on a sensor chip optically.

B1: anti-NGF feline IgG1a, Fc variant S428Y (antibody, part only; not given: anti-NGF variable domains, not shown: another chain or arm of the molecule; small tags and cut ends)
Fc: PPEMLGGPSIFIFPPKPKDTLSISRTPEVTCLVVDLGPDDSDVQITWFVDNTQVYTAKTSPREEQFNSTYRVVSVLPILHQDWLKGKEFKCKVNSKSLPSPIERTISKAKGQPHEPQVYVLPPAQEELSRNKVSVTCLIKSFHPPDIAVEWEITGQPEPENNYRTTPPQLDSDGTYFVYSKLSVDRSHWQRGNTYTCSVYHEALHSHHTQKSLTQSPGK
Turning to B1, in experiment [1], the Kd stood at 71.8 nM. Further, in experiment [2], the Kd came out at 25.6 nM, the koff came to 0.0184 s⁻¹ and the kon stood at 718000 M⁻¹ s⁻¹.

B2: anti-NGF feline IgG1a, Fc variant S428Y, L309V, E380T (antibody, part only; not given: anti-NGF variable domains, light chain, not shown: another chain or arm of the molecule; small tags and cut ends)
Fc: PPEMLGGPSIFIFPPKPKDTLSISRTPEVTCLVVDLGPDDSDVQITWFVDNTQVYTAKTSPREEQFNSTYRVVSVLPIVHQDWLKGKEFKCKVNSKSLPSPIERTISKAKGQPHEPQVYVLPPAQEELSRNKVSVTCLIKSFHPPDIAVTWEITGQPEPENNYRTTPPQLDSDGTYFVYSKLSVDRSHWQRGNTYTCSVYHEALHSHHTQKSLTQSPGK
B2 returned a Kd in experiment [1] of 20.6 nM.

B3: anti-NGF feline IgG1a, Fc variant S428Y, Q311V, E380T (antibody, part only; not given: anti-NGF variable domains, not shown: another chain or arm of the molecule; small tags and cut ends)
Fc: PPEMLGGPSIFIFPPKPKDTLSISRTPEVTCLVVDLGPDDSDVQITWFVDNTQVYTAKTSPREEQFNSTYRVVSVLPILHVDWLKGKEFKCKVNSKSLPSPIERTISKAKGQPHEPQVYVLPPAQEELSRNKVSVTCLIKSFHPPDIAVTWEITGQPEPENNYRTTPPQLDSDGTYFVYSKLSVDRSHWQRGNTYTCSVYHEALHSHHTQKSLTQSPGK
For B3, the dissociation constant Kd in experiment [1] was determined as 20.1 nM.

B4: anti-NGF feline IgG1a, Fc variant S428Y, Q311V (antibody, part only; not given: Anti-NGF variable domains, not shown: another chain or arm of the molecule; small tags and cut ends)
Fc: PPEMLGGPSIFIFPPKPKDTLSISRTPEVTCLVVDLGPDDSDVQITWFVDNTQVYTAKTSPREEQFNSTYRVVSVLPILHVDWLKGKEFKCKVNSKSLPSPIERTISKAKGQPHEPQVYVLPPAQEELSRNKVSVTCLIKSFHPPDIAVEWEITGQPEPENNYRTTPPQLDSDGTYFVYSKLSVDRSHWQRGNTYTCSVYHEALHSHHTQKSLTQSPGK
Consider B4, for which the Kd in experiment [1] was found to be 32.2 nM. In experiment [2], this molecule came in with a dissociation constant Kd of 10.9 nM, a koff of 0.00977 s⁻¹ and a kon of 893000 M⁻¹ s⁻¹.

B5: anti-NGF feline IgG1a, Fc variant S428Y, L309V (antibody, part only; not given: Anti-NGF variable domains, not shown: another chain or arm of the molecule; small tags and cut ends)
Fc: PPEMLGGPSIFIFPPKPKDTLSISRTPEVTCLVVDLGPDDSDVQITWFVDNTQVYTAKTSPREEQFNSTYRVVSVLPIVHQDWLKGKEFKCKVNSKSLPSPIERTISKAKGQPHEPQVYVLPPAQEELSRNKVSVTCLIKSFHPPDIAVEWEITGQPEPENNYRTTPPQLDSDGTYFVYSKLSVDRSHWQRGNTYTCSVYHEALHSHHTQKSLTQSPGK
B5 returned a dissociation constant (Kd) in experiment [1] of 35.3 nM. In experiment [2], the Kd was determined as 13.2 nM, the koff was 0.0112 s⁻¹ and the kon is 847000 M⁻¹ s⁻¹.

B6: anti-NGF feline IgG1a, Fc variant S428Y, L309V, T286E (antibody, part only; not given: anti-NGF variable domains, not shown: another chain or arm of the molecule; small tags and cut ends)
Fc: PPEMLGGPSIFIFPPKPKDTLSISRTPEVTCLVVDLGPDDSDVQITWFVDNTQVYEAKTSPREEQFNSTYRVVSVLPIVHQDWLKGKEFKCKVNSKSLPSPIERTISKAKGQPHEPQVYVLPPAQEELSRNKVSVTCLIKSFHPPDIAVEWEITGQPEPENNYRTTPPQLDSDGTYFVYSKLSVDRSHWQRGNTYTCSVYHEALHSHHTQKSLTQSPGK
Molecule B6 came in with a Kd in experiment [3] of 5.26 nM.
